Test results published in US20140073518A1 (Stanford University, published 2014).

Columns and labels:
[1] = target: T1, αvβ3 integrin on K562-αvβ3 cells (K562 leukemia cells transfected with αvβ3 integrin) (UniProt P06756 31-1048; P05106 27-788); experiment: flow cytometry on K562-αvβ3 cells, anti-FLAG detection
T1 construct: whole, on cells; also called cell-surface αvβ3 integrin

[2] = target: T1, αvβ3 integrin on K562-αvβ3 cells (K562 …); experiment: binding to cells that express αvβ3 integrin
[3] = target: T1, αvβ3 integrin on K562-αvβ3 cells (K562 …); experiment: K562-αvβ3 cell binding assay
[4] = target: T2, soluble Alexa-488 labeled human Met-Fc (human, UniProt P08581 25-932, limits assumed, Alexa-488 label); experiment: dual receptor direct binding assay, flow cytometry; 220 nM Met-Fc, 2 or 20 nM protein
T2 construct: not shown: Fc part

[5] = target: T3, soluble αvβ3 integrin (UniProt P06756 31-992; P05106 27-718); experiment: yeast surface display, flow cytometry
T3 construct: also called alpha v beta 3 integrin

[6] = target: T4, Gas6 (growth arrest-specific 6), soluble, hexahistidine-tagged (UniProt Q14393 49-678, limits assumed); experiment: yeast surface display, soluble Gas6
T4 construct: also called Gas6 ligand; soluble Gas6
T4 sequence (looked up): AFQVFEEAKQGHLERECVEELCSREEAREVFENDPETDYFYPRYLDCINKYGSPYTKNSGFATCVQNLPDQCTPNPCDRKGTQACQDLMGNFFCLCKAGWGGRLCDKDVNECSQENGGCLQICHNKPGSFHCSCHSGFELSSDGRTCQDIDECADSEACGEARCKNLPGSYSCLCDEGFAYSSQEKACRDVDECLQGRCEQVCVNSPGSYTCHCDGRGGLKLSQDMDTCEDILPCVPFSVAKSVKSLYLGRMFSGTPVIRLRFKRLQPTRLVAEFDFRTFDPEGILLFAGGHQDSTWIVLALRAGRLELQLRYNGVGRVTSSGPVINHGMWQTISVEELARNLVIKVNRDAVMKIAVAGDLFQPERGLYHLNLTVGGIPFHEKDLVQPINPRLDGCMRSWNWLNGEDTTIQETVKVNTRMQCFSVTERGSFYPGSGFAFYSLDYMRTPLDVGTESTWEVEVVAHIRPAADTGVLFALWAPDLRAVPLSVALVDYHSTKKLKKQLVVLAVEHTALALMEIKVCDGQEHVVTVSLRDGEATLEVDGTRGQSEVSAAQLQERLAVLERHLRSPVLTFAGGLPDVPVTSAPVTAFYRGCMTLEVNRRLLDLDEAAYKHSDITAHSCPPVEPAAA

[7] = target: T1, αvβ3 integrin on K562-αvβ3 cells (K562 …); experiment: binding titration of the soluble fusion protein on K562-αvβ3 cells, flow cytometry; the cells express αvβ3 integrin and also Met receptor
[8] = target: T4, Gas6 (growth arrest-specific 6), …; experiment: yeast surface display, flow cytometry

T1 sequence (P06756 31-1048, chain 1 of 2): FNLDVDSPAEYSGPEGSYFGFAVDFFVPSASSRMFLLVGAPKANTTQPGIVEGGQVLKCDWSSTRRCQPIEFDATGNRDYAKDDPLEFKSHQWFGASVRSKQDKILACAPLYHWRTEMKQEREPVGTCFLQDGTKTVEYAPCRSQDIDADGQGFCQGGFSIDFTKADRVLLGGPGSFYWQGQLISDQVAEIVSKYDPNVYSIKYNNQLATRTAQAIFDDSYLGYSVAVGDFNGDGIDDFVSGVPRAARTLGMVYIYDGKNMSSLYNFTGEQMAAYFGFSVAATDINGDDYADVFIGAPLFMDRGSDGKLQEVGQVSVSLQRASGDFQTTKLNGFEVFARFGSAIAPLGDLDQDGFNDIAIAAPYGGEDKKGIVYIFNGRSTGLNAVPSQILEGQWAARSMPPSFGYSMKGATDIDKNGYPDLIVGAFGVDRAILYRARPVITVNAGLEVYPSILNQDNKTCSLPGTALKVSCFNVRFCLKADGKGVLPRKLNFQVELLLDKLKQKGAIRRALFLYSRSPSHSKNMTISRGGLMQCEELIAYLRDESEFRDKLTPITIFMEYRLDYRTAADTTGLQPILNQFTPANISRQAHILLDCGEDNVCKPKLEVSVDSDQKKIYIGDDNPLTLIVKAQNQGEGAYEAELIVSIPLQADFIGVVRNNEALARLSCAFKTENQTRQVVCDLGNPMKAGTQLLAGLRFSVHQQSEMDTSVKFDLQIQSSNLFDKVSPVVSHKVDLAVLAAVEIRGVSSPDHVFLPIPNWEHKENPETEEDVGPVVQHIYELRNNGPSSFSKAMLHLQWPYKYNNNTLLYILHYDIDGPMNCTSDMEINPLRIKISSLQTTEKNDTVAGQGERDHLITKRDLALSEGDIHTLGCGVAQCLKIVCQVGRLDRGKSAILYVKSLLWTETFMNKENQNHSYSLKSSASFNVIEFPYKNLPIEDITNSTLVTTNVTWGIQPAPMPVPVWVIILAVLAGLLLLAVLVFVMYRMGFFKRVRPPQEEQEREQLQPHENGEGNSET
T1 sequence (P05106 27-788, chain 2 of 2): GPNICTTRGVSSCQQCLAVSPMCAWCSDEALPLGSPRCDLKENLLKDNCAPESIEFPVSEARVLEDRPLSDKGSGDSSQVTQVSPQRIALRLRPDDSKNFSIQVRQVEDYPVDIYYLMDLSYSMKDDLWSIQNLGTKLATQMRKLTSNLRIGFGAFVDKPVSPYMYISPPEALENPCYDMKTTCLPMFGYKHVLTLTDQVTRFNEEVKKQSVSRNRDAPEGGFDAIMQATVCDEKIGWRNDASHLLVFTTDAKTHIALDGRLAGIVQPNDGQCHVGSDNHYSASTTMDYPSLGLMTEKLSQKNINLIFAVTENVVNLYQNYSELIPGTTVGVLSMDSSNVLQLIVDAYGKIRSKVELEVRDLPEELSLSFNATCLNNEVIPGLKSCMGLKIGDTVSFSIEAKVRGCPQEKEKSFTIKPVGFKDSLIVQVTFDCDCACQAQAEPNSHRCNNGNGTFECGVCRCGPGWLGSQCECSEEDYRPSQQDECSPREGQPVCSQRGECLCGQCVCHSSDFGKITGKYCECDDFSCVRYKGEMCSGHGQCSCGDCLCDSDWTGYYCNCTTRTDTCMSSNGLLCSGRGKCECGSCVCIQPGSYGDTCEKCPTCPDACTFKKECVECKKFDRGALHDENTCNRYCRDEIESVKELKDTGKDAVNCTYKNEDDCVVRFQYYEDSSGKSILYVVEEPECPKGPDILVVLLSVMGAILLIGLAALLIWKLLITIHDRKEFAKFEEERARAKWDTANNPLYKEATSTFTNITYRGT
T2 sequence (P08581 25-932 limits assumed): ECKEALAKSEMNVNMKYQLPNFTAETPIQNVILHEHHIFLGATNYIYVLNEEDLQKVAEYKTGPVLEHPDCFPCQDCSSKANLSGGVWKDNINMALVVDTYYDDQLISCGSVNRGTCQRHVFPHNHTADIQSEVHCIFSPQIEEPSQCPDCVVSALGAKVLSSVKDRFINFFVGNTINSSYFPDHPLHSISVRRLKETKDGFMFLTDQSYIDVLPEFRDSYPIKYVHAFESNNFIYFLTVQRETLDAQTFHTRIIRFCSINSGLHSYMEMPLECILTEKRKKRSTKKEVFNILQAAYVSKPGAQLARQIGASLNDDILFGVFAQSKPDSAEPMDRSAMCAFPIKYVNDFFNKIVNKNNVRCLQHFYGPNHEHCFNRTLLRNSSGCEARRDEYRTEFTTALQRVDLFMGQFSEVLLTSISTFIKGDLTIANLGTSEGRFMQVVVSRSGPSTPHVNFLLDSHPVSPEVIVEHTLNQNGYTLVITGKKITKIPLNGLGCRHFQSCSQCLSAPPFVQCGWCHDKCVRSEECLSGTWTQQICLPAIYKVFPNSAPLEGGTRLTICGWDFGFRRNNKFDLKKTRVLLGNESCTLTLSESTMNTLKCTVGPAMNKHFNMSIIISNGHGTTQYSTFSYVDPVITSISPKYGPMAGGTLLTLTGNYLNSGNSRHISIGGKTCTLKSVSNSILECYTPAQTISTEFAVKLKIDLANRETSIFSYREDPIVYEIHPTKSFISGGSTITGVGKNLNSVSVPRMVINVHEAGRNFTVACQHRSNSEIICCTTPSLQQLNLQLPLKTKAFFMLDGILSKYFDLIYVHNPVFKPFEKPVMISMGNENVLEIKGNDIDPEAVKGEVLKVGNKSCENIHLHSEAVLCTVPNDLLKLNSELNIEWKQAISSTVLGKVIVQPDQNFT
T3 sequence (P06756 31-992, chain 1 of 2): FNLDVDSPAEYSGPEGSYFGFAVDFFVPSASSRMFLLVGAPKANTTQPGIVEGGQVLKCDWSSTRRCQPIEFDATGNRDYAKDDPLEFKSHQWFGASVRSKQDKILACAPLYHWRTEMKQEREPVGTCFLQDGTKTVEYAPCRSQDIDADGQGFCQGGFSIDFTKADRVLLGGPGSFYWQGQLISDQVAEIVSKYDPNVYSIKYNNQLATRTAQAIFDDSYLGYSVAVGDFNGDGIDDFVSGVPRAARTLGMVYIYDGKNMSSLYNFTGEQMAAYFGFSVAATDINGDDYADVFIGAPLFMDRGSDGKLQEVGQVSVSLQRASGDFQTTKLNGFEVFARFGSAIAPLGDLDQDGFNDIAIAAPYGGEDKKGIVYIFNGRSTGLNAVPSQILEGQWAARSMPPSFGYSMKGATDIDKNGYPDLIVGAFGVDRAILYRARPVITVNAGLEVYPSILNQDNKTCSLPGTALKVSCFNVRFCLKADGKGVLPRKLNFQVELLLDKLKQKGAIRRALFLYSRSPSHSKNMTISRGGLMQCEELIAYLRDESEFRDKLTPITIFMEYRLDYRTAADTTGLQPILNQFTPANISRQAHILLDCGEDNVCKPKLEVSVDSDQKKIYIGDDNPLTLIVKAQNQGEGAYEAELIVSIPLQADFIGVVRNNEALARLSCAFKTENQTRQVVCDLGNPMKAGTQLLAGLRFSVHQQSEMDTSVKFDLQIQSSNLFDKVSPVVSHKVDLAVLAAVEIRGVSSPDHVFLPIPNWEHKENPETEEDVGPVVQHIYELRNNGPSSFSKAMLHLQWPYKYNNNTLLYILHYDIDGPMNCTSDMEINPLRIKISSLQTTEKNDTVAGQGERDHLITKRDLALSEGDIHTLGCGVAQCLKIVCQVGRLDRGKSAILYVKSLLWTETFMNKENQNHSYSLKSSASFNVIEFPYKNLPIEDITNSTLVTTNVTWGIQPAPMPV
T3 sequence (P05106 27-718, chain 2 of 2): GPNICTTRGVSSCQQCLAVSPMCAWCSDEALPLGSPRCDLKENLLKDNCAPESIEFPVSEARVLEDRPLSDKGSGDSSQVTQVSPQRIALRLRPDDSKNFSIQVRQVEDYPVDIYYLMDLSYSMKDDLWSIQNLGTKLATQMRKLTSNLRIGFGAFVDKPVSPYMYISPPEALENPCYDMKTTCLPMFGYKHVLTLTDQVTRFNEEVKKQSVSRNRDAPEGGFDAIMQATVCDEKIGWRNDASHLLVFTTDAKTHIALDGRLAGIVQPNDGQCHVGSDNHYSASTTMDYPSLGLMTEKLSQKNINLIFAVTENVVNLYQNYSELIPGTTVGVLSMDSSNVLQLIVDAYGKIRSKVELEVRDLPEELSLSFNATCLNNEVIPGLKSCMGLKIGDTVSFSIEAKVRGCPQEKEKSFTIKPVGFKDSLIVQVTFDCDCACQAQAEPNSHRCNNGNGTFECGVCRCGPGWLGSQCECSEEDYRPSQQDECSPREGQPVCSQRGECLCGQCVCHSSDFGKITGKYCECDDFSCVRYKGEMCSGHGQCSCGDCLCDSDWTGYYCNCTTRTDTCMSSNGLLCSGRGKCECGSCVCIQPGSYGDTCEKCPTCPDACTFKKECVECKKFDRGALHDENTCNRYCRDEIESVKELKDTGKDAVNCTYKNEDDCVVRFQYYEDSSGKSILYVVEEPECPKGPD

B1: EETI 2.5D-Axl fusion protein (soluble, produced in P. pastoris) (designed binder)
chain: GCPQGRGDWAPTSCSQDSDCLAGCVCGPNGFCGSRGTQAEESPFVGNPGNITGARGLTGTLRCQLQVQGEPPEVHWLRDGQILELADSTQTQVPLGEDEQDDWIVVSQLRITSLQLSDTGQYQCLVFLGHQTFVSQPGYVGLEGLP
notes: Treated with endoH; monomeric; also called 2.5D - Axl Ig1; recombinantly produced EETI 2.5D-Axl
B1 was tested. Which Kd [1] did it give?
The Kd was 1.72 nM.

What about the Kd [2] of the same binder?
The Kd was ~2 nM.

B2: EETI2.5F-M2.2(D127A) fusion protein (designed binder)
chain: DYKDDDDKPRGCPRPRGDNPPLTCSQDSDCLAGCVCGPNGFCGYAEGQRKRRNTIHEFKKSAKTTLIKIDPALKIKTEKVNTADQCANRCTRNKGLPFTCKAFVFDKARKRCLWFPFNSMSSGVKKEFGHEFDLYENKDYIRACIIGNGRSYRGTVSITKSGIKCQPWSSMIPHEHSFLPSSYRGEDLRENYCRNPRGEEGGPWCFTSDPEVRYEVCDIPQCSEVETRHHHHHH
B2 was tested. Which Kd [3] did it give?
The Kd was 4.6 nM.

Does B2 bind [4]?
Result: binds

B3: EETI2.5F-M2.2 fusion protein (designed binder)
chain: DYKDDDDKPRGCPRPRGDNPPLTCSQDSDCLAGCVCGPNGFCGYAEGQRKRRNTIHEFKKSAKTTLIKIDPALKIKTEKVNTADQCANRCTRNKGLPFTCKAFVFDKARKRCLWFPFNSMSSGVKKEFGHEFDLYENKDYIRDCIIGNGRSYRGTVSITKSGIKCQPWSSMIPHEHSFLPSSYRGEDLRENYCRNPRGEEGGPWCFTSDPEVRYEVCDIPQCSEVETRHHHHHH
Does B3 bind [4]?
Result: binds

B4: wild-type Axl Ig1 (yeast-displayed) (receptor)
chain: APRGTQAEESPFVGNPGNITGARGLTGTLRCQLQVQGEPPEVHWLRDGQILELADSTQTQVPLGEDEQDDWIVVSQLRITSLQLSDTGQYQCLVFLGHQTFVSQPGYVGLEGLP
notes: T0017 footnote says amino acids 19-132; also called Wt Axl; wt Axl Ig1
Does B4 bind [5]?
Result: no binding (tested: 20, 50 or 100 nM αvβ3 integrin)

Does GCSWSTLARCKQDSDCLAGCVCMLEPGMRSCGS (designed binder, also called EETI-II mutants alone) [EETI-II mutant of EA 8.04 alone (expressed without Axl)] bind [6]?
Result: no binding

Does GCLGGVALAHCKQDSDCLAGCVCHILPELCGS (designed binder, also called EETI-II mutants alone) [EETI-II mutant of EA 7.06 alone (expressed without Axl)] bind [6]?
Result: no binding

B5: AgRp7A-M2.2 fusion protein (designed binder)
chain: DYKDDDDKPRGCVRLHESCLGQQVPCCDPAATCYCSGRGDNDLVCYCRYAEGQRKRRNTIHEFKKSAKTTLIKIDPALKIKTEKVNTADQCANRCTRNKGLPFTCKAFVFDKARKRCLWFPFNSMSSGVKKEFGHEFDLYENKDYIRDCIIGNGRSYRGTVSITKSGIKCQPWSSMIPHEHSFLPSSYRGEDLRENYCRNPRGEEGGPWCFTSDPEVRYEVCDIPQCSEVETRHHHHHH
Does B5 bind [4]?
Result: binds

B6: AgRp7A-M2.2(D127A) fusion protein (designed binder)
chain: DYKDDDDKPRGCVRLHESCLGQQVPCCDPAATCYCSGRGDNDLVCYCRYAEGQRKRRNTIHEFKKSAKTTLIKIDPALKIKTEKVNTADQCANRCTRNKGLPFTCKAFVFDKARKRCLWFPFNSMSSGVKKEFGHEFDLYENKDYIRACIIGNGRSYRGTVSITKSGIKCQPWSSMIPHEHSFLPSSYRGEDLRENYCRNPRGEEGGPWCFTSDPEVRYEVCDIPQCSEVETRHHHHHH
How did the Kd [3] turn out when B6 was run?
Its Kd is 2.1 nM.

Does B6 bind [4]?
Result: binds

B7: AgRP7A-Aras4 fusion protein (soluble, FLAG and His tagged) (designed binder)
chain: DYKDDDDKPRGCVRLHESCLGQQVPCCDPAATCYCSGRGDNDLVCYCRYAEGQGKRRNTIHEFKKSAKTTLIKIDPALRIKTEKANTADQCANRCTRSKGLPFTCKAFVFDKARKRCLWFPFNSMSSGVKKEFGHEFDLYENKAYIRDCIIGRGRNYRGTVSITKSGIKCQPWSAMIPHEHSFLPSSYRGEDLRENYCRNPRGEEGGPWCYTSDPEVRYEVCDIPQCSEVETRHHHHHH
notes: Produced in Pichia pastoris
Which “EC50 (read off the curve)” value [7] does the source give for B7 here?
The value was ~1 nM.

Does GCALMTPSAVDCKQDSDCLAGCVCLPGMVRCGS (designed binder, also called EETI-II mutants alone) [EETI-II mutant of EA 7.01 alone (expressed without Axl)] bind [6]?
Result: no binding

Does GCPQGRGDWAPTSCKQDSDCRAGCVCGPNGFCG (designed binder, also called EETI 2.5D) [EETI-II mutant 2.5D (yeast-displayed)] bind [8]?
Result: no binding (tested: 0.2, 2 or 20 nM Gas6)
